Entries after “also recorded” stand apart in the source; their conditions may differ.
B1: His-MP7: heptapeptide fusion protein, SEQ ID NO: 15: elf18, csp22, flg22, flgII-28, nlp20, pep1, pip1 in sequence, linkers GAG and AGA, HIS tag (protein)
chain: MGSSHHHHHHSSGLVPRGSHMASMTGGQQMGRDPNSSSVDKLSKEKFERTKPHVNVGTIGGAGAVGTVKWFNAEKGFGFITPDDGAGAQRLSTGSRINSAKDDAAGLQIAGAGESTNILQRMRELAVQSRNDSNSATDREAGAGAIMYSWYFPKDSPVTGLGHRAGAATKVKAKQRGKEKVSSGRPGQHNAGARLASGPSPRGRGH
modifications: his-MP7

What was measured:
[1] = system: callose accumulation of Arabidopsis; assay: Intensity of immune responses of various fusion proteins: callose fluorescence in Arabidopsis leaves quantified by ImageJ; type: in vivo; conditions: 100 nmol final concentration
Procedure: Computation was conducted through image processing software ImageJ according to obtained callose accumulation fluorescence images, and the immune activation ability of the fusion proteins to the plants was quantified by virtue of the fluorescence intensity. Computing methods were as follows:
Measured IntDen=Integrated Density=Integrated Optical Density;
Measured Area=Image Area;
MD(mean optical density)=IntDen/Area.

Magaporthe grisea = type: in vivo; conditions: rice leaves, 100 nM
[2] = system: Tobacco mosaic virus (TMV); assay: Resistance of tobacco plants to Tobacco mosaic virus (disease grading, disease index, control effect)
Procedure: The experiment was divided into an experimental group and a control group (with 20 lines of tobacco plants in each group). After the experimental group was injected with a recombinant protein, viruses were inoculated to the experimental group; and after the control group was injected with the sterile water, the viruses were inoculated to the control group. It was inoculated through the following steps:
(1) Fresh leaves infected with TMV were added to a small amount of sterilized phosphate buffer (1:200) and were ground in a mortar and filtered with sterilized gauze to remove the residues of the infected leaves. The above fresh juice was prepared as an inoculum and a concentration of the inoculum of the TMV was adjusted to obtain an aqueous solution of TMV.
(2) When tobacco seedlings were in the 4-5 true leaves period, fully expanded true leaves were selected; a suitable amount of quartz sands were uniformly scattered on the leaf surfaces; and the leaf surfaces were slightly rubbed by an absorbent ball dipped with the aqueous solution of TMV for 1-2 times and then immediately washed with water.
(3) After inoculation for 21 days, the morbidity of tobacco plants was observed. With each plant as a unit for assessment, the grading standard was as follows:
Grade 0: freedom from disease
Grade 3: newborn leaf had yellow-green stripes parallel to the leaf vein with slightly curling;
Grade 7: plant was dwarfed, leaf had yellowish-white strips with curling, and newborn leaves were twisted and prolapsed and could not be normally expanded; and
Grade 9: plant was dwarfed seriously and subjected to chlorina or died.
A disease index and the control effect were computed with the following methods:
Disease index=[Σ(number of infected plants in various grades×relative grade value)/(total number of plants investigated×9)]×100;
Control effect (%)=[(control disease index-treatment disease index)/control disease index]×100.

[3] = system: Pseudomonas syringae DC3000; assay: Resistance of Arabidopsis to DC3000 pathogenic bacteria (colony growth in injected leaves)
Procedure: (1) A strain DC3000 of Pseudomonas syringae was inoculated to 20 mL of SOC+str (streptomycin) liquid medium for overnight culture for 14-16 h at 28° C., OD600 was determined, and a product was subjected to gradient dilution until OD600 was 0.00005 to obtain a bacterial solution.
(2) The fusion protein His-MP7 was added in the bacterial solution until a final concentration was 100 nM, and a bacterial solution, to which water was added, was served as a control. Meanwhile, four-week old healthy Arabidopsis leaves were injected with the bacterial solution and were sampled at Day 0 (four leaves from one plant) and Day 3 (five plants, two leaves from each plant) respectively. Each leaf was punched by a puncher. The punched small discs were taken; 500 μL of 10 mM MgCl2 was added at Day 0; the small discs were ground in a 1.5 mL EP tube; and 50 μL of each of four samples in the same treatment was spotted on one SOC+str (streptomycin) solid plate (the plate required to be blow-dried, and then the shape of each spotted sample could be kept) and cultured for 16-24 h at 28° C. Samples were photographed and observed for statistics of colony growth.
(3) At Day 3, the two leaves on each plant of the five plants were punched to take small discs similarly; 250 μL of 10 mM MgCl2 was added; and the small discs were ground in the 1.5 mL EP tube and diluted by MgCl2 stepwise until 1×10^−5.

[4] = system: callose accumulation of Arabidopsis; assay: Callose accumulation in Arabidopsis leaves infiltrated with fusion protein or PAMP polypeptide (aniline blue staining); type: in vivo
Procedure: In immune responses of plant cells, callose might accumulate. The callose might enhance the mechanical strength of plant cell walls and block channels through which pathogens spread between the cells, thereby limiting invasion of pathogenic microorganisms. With a model plant Arabidopsis as a material and callose accumulation as immune index, the immune activation abilities of different concentrations of fusion proteins His-MP7 were analyzed and were compared to that of a single PAMP polypeptide. A specific experimental operation was as follows:
Final concentrations of the fusion protein His-MP7 and a polypeptide flg22 were adjusted to be 1 μM, 100 nM and 10 nM respectively, with water being served as a control. Four-week old Arabidopsis leaves were infiltrated with an injection syringe permeation method for 12 h, the treated leaves were collected and put in a 6-well plate, and a suitable amount of washing buffer was added for 4 h incubation. The washing buffer was substituted by an aniline blue staining solution with a final concentration of 0.1 mg/mL for staining at a room temperature in the dark for 1 h, and the callose accumulation was observed using a 10 times objective lens of a fluorescence microscope. Each treatment contained three biological replicates with three repeated experiments.
A final concentration of the fusion protein His-MP7 and each of polypeptides flg22, nlp20, elf18, pip1, pep1, csp22 and flgII-28 was adjusted to be 100 nM, with csp22 and flgII-28 being served as negative controls. The four-week old Arabidopsis leaves were infiltrated with an injection syringe permeation method; and a sample treatment method was the same as mentioned above.

[5] = system: oxidative burst immune response in corn leaves; assay: Reactive oxygen species / oxidative burst in corn leaves (DAB staining); type: in vivo; conditions: 100 nM, corn leaves soaked 48 h, FIG. 4
Procedure: Oxidative burst was considered as one of earliest responses of plants to pathogenic microorganisms and played an important role in defense responses of the plants. […] After the plants were infected by the pathogenic microorganisms, the reactive oxygen species could be produced and accumulate, and oxidative burst could be caused. With plant corns as a material and the reactive oxygen species as an immune index, the immune activation ability of 100 nM fusion protein His-MP7 was analyzed. A specific experimental operation was as follows:
Two-week old corn leaves were taken, the intermediate portion of each leaf was taken, shorn with a length of 5 cm and immersed into 1 μg/mL auxin 6BA solution. It was added with the fusion protein His-MP7 with a final concentration of 100 nM, with an aqueous solution of auxin 6BA being served as a blank control. The intermediate portions were soaked for 48 h, stained for 12 h using 1 mg/mL DAB solution, eluted for 12 h by a washing buffer (ethyl alcohol:acetic acid:glycerin=3:1:1) and observed after being placed for 30 min.

[6] = 21 days after TMV inoculation, 20 plants per group

| Molecule | MD (mean optical density = IntDen/Area) of callose fluorescence ([1]; H2O 0.002-0.003) | Immune activation ([1]; H2O: No) | scab area percentage (Magaporthe grisea; 3-4 days, untreated 11.6%) | infection rate of Magaporthe grisea lowered by (Magaporthe grisea; versus untreated) | Number of Infect Tobacco Plants, 0 grade [2, 6] | Number of Infect Tobacco Plants, 1 grade [2, 6] | Number of Infect Tobacco Plants, 3 grade [2, 6] | Number of Infect Tobacco Plants, 5 grade [2, 6] | Number of Infect Tobacco Plants, 7 grade [2, 6] | Number of Infect Tobacco Plants, 9 grade [2, 6] | Control effect ([2]; tobacco, TMV, 21 days, versus H2O control) | Disease index ([2]; tobacco, TMV, 21 days, H2O control 78.9) | bacterium growth index ([3]; 100 nM in bacterial solution, Arabidopsis leaves, FIG. 5, control 5.38) | reduction of growth amount of Pseudomonas syringae DC3000 ([3]; 100 nM, versus water control) | intensity of callose accumulation compared with flg22 ([4]; 100 nM His-MP7 versus 1 μM flg22, FIG. 2) | callose accumulation of Arabidopsis ([4]; 100 nM, leaf infiltration 12 h, FIG. 2) | immune activity effect compared with single PAMP polypeptides (callose accumulation) ([4]; all at 100 nM, flg22, nlp20, elf18, pip1, pep1, csp22, flgII-28, FIG. 3) | induction of oxidative burst immune response [5] |
| --- | --- | --- | --- | --- | --- | --- | --- | --- | --- | --- | --- | --- | --- | --- | --- | --- | --- | --- |
| TP10 | 0.378 | Yes |  |  |  |  |  |  |  |  |  |  |  |  |  |  |  |  |
| B1 |  |  | 1.9% | 83.6% | 1 plant | 11 plant | 6 plant | 2 plant | 0 plant | 0 plant | 72.5% | 21.7 | 4.05 | ≥ 10 | equivalent to that induced by 1 μM PAMP polypeptide flg22 | obviously induced | superior to those of all the PAMP polypeptides; also recorded: superior to that of a single PAMP polypeptide | could induce the oxidative burst immune response |

From US20230036503A1, “Fusion Protein, Amino Acid Sequence Thereof, Coding Nucleotide Sequence Thereof, Preparation Method Thereof and Use Thereof” (priority 2019, published 2023)
